In this test the target is T1, interleukin 2 receptor beta (IL-2Rβ) (UniProt P14784 27-240, limits assumed).
T1 construct: also called CD122
T1 sequence (looked up): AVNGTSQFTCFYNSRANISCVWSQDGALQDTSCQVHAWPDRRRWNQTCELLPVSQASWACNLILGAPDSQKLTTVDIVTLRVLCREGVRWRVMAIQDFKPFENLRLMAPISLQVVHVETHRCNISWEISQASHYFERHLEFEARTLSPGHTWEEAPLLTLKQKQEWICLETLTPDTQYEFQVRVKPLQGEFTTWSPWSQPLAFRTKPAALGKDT
As to the kind of experiment: method not stated; Kd column of the H9 substitution matrix; target not given.

B1: H9 (IL-2 mutein having the amino acid substitutions L80F, R81D, L85V, I86V, and I92F, numbered in accordance with wild-type human IL-2 of SEQ ID NO:2) (ligand)
chain: APTSSSTKKTQLQLEHLLLDLQMILNGINNYKNPKLTRMLTFKFYMPKKATELKHLQCLEEELKPLEEVLNLAQSKNFHFDPRDVVSNINVFVLELKGSETTFMCEYADETATIVEFLNRWITFCQSIISTLT
notes: also called IL-2 superkine
In the case of B1, the affinity, expressed as Kd, was 1.3 nM.
